Data on 2 molecules can be found in patent publication US20140037661A1, “Wheat Antigens and Peptides for Diagnosis of Wheat Induced Hypersensitivity” (PHADIA AB, priority 2011, published 2014).

Common to all, as to type: binding, human
Test [1] has as its system serum-IgA from CD patients. The test is described as follows: IgA reactivity ELISA to synthetic GG1 peptides. As to conditions: 5 μg/ml coated; n=8 CD, 2 CD on gluten free diet, 3 healthy controls; FIG. 16. The protocol:
ELISA plates were coated with 100 ul of 5 μg/ml of the 19 overlapping peptides, rGG1, alpha-gliadin peptide p56-75 and deamidated alpha gliadin peptide p56-75 (Q65E) and probed with serum-IgA from CD patients, CD patients on gluten free diet and healthy controls and detected using mouse anti-human IgA1/A2 and sheep anti-mouse IgG-HRP labelled antibody. Human serum albumin (HSA) was used as control (n=8 CD patients, 2 CD patients on gluten free diet and 3 healthy controls). […] Each of the synthetic GG1 peptides no.
On the technique in general: An ELISA detects its analyte on a solid surface through an enzyme-linked reagent.

Test [2] relates to serum IgA of celiac disease patients. Description: IgA reactivity ELISA to wheat food antigens. As to conditions: 5 μg/ml coated, sera 1:100, read at 405 nm, FIG. 15. The procedure:
100 μl of the wheat proteins GG1 (Gamma gliadin 1), GG2 (Gamma gliadin 2), α-purothionin, GluB3-23, C-175, Mal 82 and Mal 43 of a concentration of 5 μg/ml were coated overnight at 4° C. onto Nunc Maxisorp Elisa plates. The remaining free binding sites were blocked with 1% BSA in PBST for 2 hours at room temperature. 100 μl of sera from celiac disease patients, celiac patients on diet and negative controls were added at a dilution of 1:100 in 0.5% BSA in PBST buffer and incubated for 12 hours at 4° C. The plates were washed 5 times in PBST buffer and 100 μl of mouse anti-human IgA1/A2 (BD Biosciences) diluted to 1:1000 in 0.5% BSA/PBST buffer was added and incubated at room temperature for 5 hours. The plates were then washed 5 times with PBST and 100 μl of sheep anti-mouse IgG conjugated with Horse radish peroxidise (HRP) (Amersham) antibodies were added and incubated at 37° C. for one hour.

In test [3] the test system is serum IgA from Dermatitis herpetiformis (DH) patients. The test is described as follows: Dermatitis herpetiformis serum IgA reactivity ELISA. The note with it: 5 μg/ml coated; n=12 DH patients, 2 healthy controls; FIG. 18. The procedure:
ELISA plates were coated with 100 μl of 5 μg/ml rGamma gliadin 1, rGamma gliadin 2, α-gliadin peptide p56-75 (α-gli peptide), deamidated α-gliadin peptide (D) and Human serum albumin. The bound proteins were probed with sera from Dermatitis herpetiformis (DH) patients and healthy controls. IgA reactivity to the proteins was detected using mouse anti-human IgA1/A2 and sheep anti-mouse IgG-HRP labelled antibody. (n=12 DH patients and 2 healthy controls).

In the case of “QVMRQQCCQQLAQIPQQLQCA (listed as Triticum aestivum) [compound 13]”, the “IgA reactivity of celiac disease patients' serum” value in test [1] is recorded as “specific IgA reactivity”.

B1: GG2: recombinant gamma gliadin 2 with 6×Histidine at the C terminal end, expressed in E. coli (protein)
chain: MNIQVDPSSQVQWPQQQPVPQPHQPFSQQPQQTFPQPQQTFPHQPQQQFPQPQQPQQQFLQPQQPFPQQPQQPYPQQPQQPFPQTQQPQQLFPQSQQPQQQFSQPQQQFPQPQQPQQSFPQQQPPFIQPSLQQQVNPCKNFLLQQCKPVSLVSSLWSMIWPQSDCQVMRQQSCQQLAQIPQQLQCAAIHTVIHSIIMQQEQQQGMHILLPLYQQQQVGQGTLVQGQGIIQPQQPAQLEAIRSLVLQTLPTMCNVYVPPECSIIKAPFSSVVAGIGGQYRHHHHHH
B1: the IgA reactivity entry in test [2] is “high”. The “IgA reactivity, DH patients versus healthy controls” value in test [3] is reported as “higher IgA reactivity to sera from DH patients than to healthy controls”.
